From article PMC8457056, “Remodeling of the Fibrillation Pathway of α‐Synuclein by Interaction with Antimicrobial Peptide LL‐III” (Chemistry (Weinheim an Der Bergstrasse, Germany), 2021)
Where no end group is shown, it is not given here. carboxyfluorescein = carboxyfluorescein at the N-terminus

Target: α‐Synuclein (human, UniProt P37840 1-140)
Test: fluorescence polarisation
Conditions: both partners purified

| Binder | Ka [M⁻¹] |
| --- | --- |
| carboxyfluorescein-VNWKKILGKIIKVVK [carboxyfluorescein‐labeled LL‐III] | 19000 |
| H-VNWKKILGKIIKVVK-NH2 [antimicrobial peptide LL‐III] | 37000 |
